Results on two molecules are retold here after patent publication US20150031612A1 (YALE UNIVERSITY, published 2015).

Bridge positions count the residues as written; N and C are the ends. Square brackets hold non-standard residues; d marks the D form. Ends that are not written are not given here. S5 = C=CCCC[C@](C)(N)C(=O)O

In this assay the target is T1, native, full length, EGFR (wtEGFR) (UniProt P00533 25-1210, limits assumed).
T1 construct: whole, on cells; The pull-down used cell lysates, not intact cells; the residue numbers used (L858R, T790M) fit human EGFR; also called wild type EGFR; Epidermal Growth Factor Receptor
In words: streptavidin-bead pull-down from lysates of wtEGFR-transfected CHO-K1 cells, anti-EGFR immunoblot. (In general: In western blotting, separated proteins are transferred to a membrane and probed.)

B1: ^BJM-WT (biotinylated analog of JM-WT) (peptide)
peptide: VRKRTLRRLLQERELVE
modifications: also: biotinylated, site not given here
Consider B1, for which the binding result is listed as “no binding (tested: 25 µM)”.

B2: ^BT1^S (biotinylated analog of T1^S) (peptide)
peptide: VRKRT[S5]RRL[S5]QERELVE
modifications: staple 6-10; also: biotinylated, site not given here
notes: Stapled form of T1, biotinylated for the pull-down
For the molecule B2, the binding result is given as “no binding (tested: 25 µM)”.
